Source: patent US5863775A, “Control of parasites” (The University of Leeds, priority 1994, dated 1999)
Where a SMILES comes first, the peptide text is derived from it. [ ]: non-standard residue; d: D form. The star is where a group is joined. Sta = CC(C)C[C@H](N)[C@@H](O)CC(=O)O; Isovaleryl = CC(C)CC(=O)*

How the values were obtained:
[1] = tested on: Caenorhabditis elegans; assay: C. elegans feeding trials on cystatin-supplemented medium; assay type: in vivo; details: for larvae that achieved normal development to adulthood: hatched and left to develop on supplemented media; for larvae that completed development: hatched on supplemented media, then transferred to normal media; for mean eggs laid per hermaphrodite: hermaphrodites on supplemented plates, 2.5 mg 1^-1, ten replicates
Method: Caenorhabditis elegans was cultured on NGM agar carrying a lawn of OP50 E. coli as described by Wood (1988). Populations were maintained for 5 days after which time an agar plug from the colony plate was inserted onto fresh media. When required, the Oc-I (see Example 6) or BSA was added to the cooled medium to a final concentration of 2.5 mg 1^-1 just before polymerisation. Single nematodes were transferred from non-supplemented solid agar plates to plates containing Oc-I or BSA.
Feeding trials were set-up using C. elegans to examine the effect of Oc-I on nematode survival and growth. As soon as hermaphrodites became apparent on normal agar they were transferred to individual plates containing either Oc-I or BSA and egg laying was observed. Ten replicates were carried out for each condition.
Subsequently the larvae hatched under normal conditions were removed to media supplemented with either Oc-I or BSA. 50 larvae were removed at 6 h, 12 h, 24 h and 30 h (corresponding to the four larval stages L1, L2, L3 and L4 respectively).
Larvae of C. elegans were transferred to agar plates with E. coli in which the medium was supplemented with 0-10 mg/L of Oc-I and the subsequent mortality of the animals during feeding was estimated from activity of the animals.

[2] = tested on: Ascaridia galli; assay: Ascaridia galli worms held in vitro for 4 days with maize inhibitor
Method: 35 day old Ascaridia were removed from the host and thoroughly rinsed with 0.9% (w/v) NaCl in distilled water before transfer to 3 cm plastic Petri-dishes containing basic culture medium: CaCl2 2H2 O (0.24 mg/ml), Na2 HCO, (0.2 mg/ml), NaCl (9.0 mg/ml) and D-glucose. (1 mg/ml). Streptomycin sulphate (100 mg) and penicillin (60 u) were included to reduce microbial contamination.
Three treatments of five replicates containing 4 worms each were used to assess the potency, of the maize inhibitor. Each treatment was carried out in the basal culture medium supplemented with:
(i) 0.5 mg/ml bovine serum albumin (BSA);
(ii) 0.5 mg/ml maize protein recovered by the batch method of which zeacystatin was estimated to be at 22 μg/ml;
(iii) no supplement to the medium.
The worms were kept for 4 days in the dark at 37° C. and solutions changed daily. Zeacystatin concentration was estimated using a papain inhibition assay as previously and by comparison of the inhibition derived from the batch method with that achieved for the zeacystatin obtained by affinity chromatography earlier.

[3] = tested on: Ascaripain from Ascaris suum; assay: Sensitivity of Ascaripain to protease inhibitors; assay type: biochemical
Excerpt: Ascaripain from Ascaris suum is similar to Ascaridia cysteine protease. Both prefer hydrolysis of Z-Phe-Arg-aminomethylcoumarin and both have limited action on Z-Phe-Arg-Arg-aminomethylcoumarin and Bz-Arg-aminomethylcoumarin. […] Pepstatin and serine protease inhibitors have no effect.

[4] = tested on: Ascaridia galli cysteine protease; assay: Inhibition of cysteine protease fraction from Ascaridia galli; assay type: biochemical
[5] = tested on: RH strain Toxoplasma gondii in MDBK cells; assay: Toxoplasma gondii growth in MDBK cell culture; assay type: cell-based; details: 24 hours
Method: Tachyzoites of T. gondii were produced by intraperitoneal passage in Tuck's Number 1 outbred mice, approximately 10^7 parasites are injected intra-peritoneally and parasites for culture were harvested three days later by peritoneal lavage with F12 medium and used immediately.
MDBK cells were plated onto 13 mm cover-slip cultures at a density of 1×10^5 per cover slip and incubated overnight in HAM's F12 medium (GIBCO) plus 10% foetal calf serum at 37° C. Tachyzoites of RH strain Toxoplasma gondii (2×10^6) were loaded onto each cover slip and incubated for 4 hours at 37° C. to allow invasion of the DBK cells. Cultures were then washed with F12 medium to remove extracellular parasites and the inhibitor was added at a concentration of 0, 30 or 120 μg/ml. The cultures were incubated for a further 24 hours at 37° C. and then removed, washed with PBS, fixed with Bouin's solution and stained with Geimsa. Parasite growth was assessed by scoring approximately 200 cells for the number of infected cells and the total number of parasites in the sample.

[6] = 30 h on normal media (L4) before transfer to supplemented media

In the case of “bovine serum albumin [BSA, reference compound]”, the “larvae that achieved normal development to adulthood” value [1] is reported as 95%, the “juveniles developing into adult nematodes” value ([1]; hatched from eggs laid on supplemented media, transferred to normal media) is reported as “All” and the “larvae that completed development” value [1] is reported as 96.0%. The “mean eggs laid per hermaphrodite” value [1] was 300, the “Activity Score of A. galli” value ([2]; 0.5 mg/ml supplement in basic medium (maize protein: zeacystatin estimated 22 μg/ml), 4 days, dark, 37° C., scale 0 (dead) to 3 (frequently active)) was 2.75 ± 0.35 and the “state of worms in culture” value ([2]; 0.5 mg/ml supplement, 4 days at 37° C.) was “remained active for 4 days”.

For CC(C)C[C@H](NC(=O)[C@H]1O[C@@H]1C(=O)O)C(=O)NCCCCN=C(N)N [E64], the “sensitivity of Ascaripain from Ascaris suum to inhibitor” value [3] was “highly sensitive”, the “sensitivity of Ascaridia cysteine protease to inhibitor” value [4] was “highly sensitive” and the “inhibition of proteolytic activity of protease from Ascaridia galli” value ([4]; 10 μM E64, pre-incubated 20 min at 37° C., Z-Phe-Arg-β-napthylamine, FIG. 6) was “over 90%”.

With CC(C)CC(=O)N[C@H](C(=O)N[C@H](C(=O)N[C@@H](CC(C)C)[C@@H](O)CC(=O)N[C@@H](C)C(=O)N[C@@H](CC(C)C)[C@@H](O)CC(=O)O)C(C)C)C(C)C [Pepstatin] (Isovaleryl-VV[Sta]A[Sta]-OH) the “sensitivity of Ascaripain from Ascaris suum to inhibitor” value [3] was “no effect” and the “sensitivity of Ascaridia cysteine protease to inhibitor” value [4] was “no effect”.

B1: egg white cystatin: protease inhibitor of cysteine proteases (a cystatin) in chick egg white (protein, UniProt P01038 24-139, looked up)
Cystatin: SEDRSRLLGAPVPVDENDEGLQRALQFAMAEYNRASNDKYSSRVVRVISAKRQLVSGIKYILQVEIGRTTCPKSSGDLQSCEFHDEPEMAKYTTCTFVVYSIPWLNQIKLLESKCQ
With B1 the “sensitivity of Ascaripain from Ascaris suum to inhibitor” value [3] was “highly sensitive” and the “sensitivity of Ascaridia cysteine protease to inhibitor” value [4] was “highly sensitive”.

B2: Oc-I: oryzacystatin I, rice cystatin cloned from Oryza sativa L. japonica, expressed in E. coli with six N-terminal histidine residues (protein, UniProt P09229 27-140, looked up)
Cysteine proteinase inhibitor …: EAHRAGGEGEEKMSSDGGPVLGGVEPVGNENDLHLVDLARFAVTEHNKKANSLLEFEKLVSVKQQVVAGTLYYFTIEVKEGDAKKLYEAKVWEKPWMDFKELQEFKPVDASANA
modifications: N-terminal His6 tag
notes: oryzacystatin I, rice cystatin cloned from Oryza sativa L. japonica, expressed in E. coli with six N-terminal histidine residues
B2 was tested, and the number parasites/cell ([5]; 30 μg/ml) was 6.3 ± 0.63, the “% cells infected” value ([5]; 30 μg/ml, listed as Inhibitor) was 66 ± 2% and the “% cells infected” value ([5]; 30 μg/ml, listed as inhibitor) was 66±2%. The number parasites/cell ([5]; 120 μg/ml, P<0.05, listed as Inhibitor) was 4.2 ± 0.17, the number parasites/cell ([5]; 120 μg/ml, P<0.05, listed as inhibitor) was 4.2±0.17 and the “% cells infected” value ([5]; 120 μg/ml, listed as Inhibitor) was 59 ± 0.6%. The “% cells infected” value ([5]; 120 μg/ml, listed as inhibitor) was 59±0.6%, the “larvae that did not reach the adult stages” value [1, 6] was 24% and the “larvae that reached adult male or hermaphrodite stages” value [1, 6] was 76%. The eggs hatched ([1]; cystatin present in the medium) was “Greater than 95%”, the “larvae that achieved normal development to adulthood” value [1] was “less than 2%” and the “larvae that completed development” value [1] was 97.0%. The “mean eggs laid per hermaphrodite” value [1] was 300, the “recovery of larvae after transfer to fresh unsupplemented media” value ([1]; larvae which failed to develop on Oc-I plates) was “failed to respond to the fresh food source and showed no signs of further development” and the “LD50 for mortality of C. elegans larvae” value ([1]; medium supplemented with 0-10 mg/L, probit analysis, FIG. 10) was “approximately 7 mg OcI per liter of medium”. The “larvae developing further to the mature adult stages” value ([1]; transferred 6, 12 or 24 h after hatching (L1, L2, L3) to supplemented media) was “none”.
